Patent US6084068, “Elongin A and C functional domains” (Oklahoma Medical Research Foundation, dated 2000)

B1: Elongin A internal deletion mutant Δ561-564 (other)
chain: MAAESALQVVEKLQARLAANPDPKKLLKYLKKLSVLPITVDILVETGVGKTVNSFRKHEQVGNFARDLVAQWKKLVPVERNNEAEDQDFEKSNSRKRPRDVPQQEEEAEGNYQESWQASGSQPYSPEHRQKKHRKLPELERPHKVAHGHERRDERKRCHKVSPPYSSDPESSDYGHVQSPPPSSPHQMYTDLSRSPEMDQEPIVSHPKPGKVHSNTFQDRLGVSHLGEHQGKGAVSQNKPHKSSHKEKRPVDARGDEKSSVMGREKSHKASSKEESRRLLSEDSAKEKLPSSVVKKEKDREGNSLKKKLSPALDVASDNHFKKPKHKDSEKIKSDKNKQSVDSVDSGRGTGDPLPRAKDKVPNNLKAQEGKVRTNSDRKSPGSLPKVEEMDMDDEFEQPTMSFESYLSYDQPRKKKKKVVKTSGTALGEKGLKKKDSKSTSKNLNSAQKLPKANENKSDKLQPAGAEPTRPRKVPTDVLPALPDIPLPAIQTNYRPLPSLELISSFQPKRKAFSSPQEEEEAGFTGRRMNSKMQVYSGSKCAYLPKMMTLHQQCIRVLKNIFEVGGVPYSVLEPVLERCTPDQLYRIEECNHVLIEETDQLWKVHCHRDFKEERPEEYESWREMYLRLQDAREQRLRLLTNNIRSAHANKPKGRQAKMAFVNSVAKPPRDVRRRQEKFGTGGAAVPEKVRIKPAPYTTGSSHVPASNSSSSFHSSPEELAYEGPSTSSAHLAPVASSSVSYDPRKPAVKKIAPMMAKTIKAFKNRFSRR
B2: Elongin A internal deletion mutant Δ565-568 (other)
chain: MAAESALQVVEKLQARLAANPDPKKLLKYLKKLSVLPITVDILVETGVGKTVNSFRKHEQVGNFARDLVAQWKKLVPVERNNEAEDQDFEKSNSRKRPRDVPQQEEEAEGNYQESWQASGSQPYSPEHRQKKHRKLPELERPHKVAHGHERRDERKRCHKVSPPYSSDPESSDYGHVQSPPPSSPHQMYTDLSRSPEMDQEPIVSHPKPGKVHSNTFQDRLGVSHLGEHQGKGAVSQNKPHKSSHKEKRPVDARGDEKSSVMGREKSHKASSKEESRRLLSEDSAKEKLPSSVVKKEKDREGNSLKKKLSPALDVASDNHFKKPKHKDSEKIKSDKNKQSVDSVDSGRGTGDPLPRAKDKVPNNLKAQEGKVRTNSDRKSPGSLPKVEEMDMDDEFEQPTMSFESYLSYDQPRKKKKKVVKTSGTALGEKGLKKKDSKSTSKNLNSAQKLPKANENKSDKLQPAGAEPTRPRKVPTDVLPALPDIPLPAIQTNYRPLPSLELISSFQPKRKAFSSPQEEEEAGFTGRRMNSKMQVYSGSKCAYLPKMMTLHQQCIRVLKNNIDSGGVPYSVLEPVLERCTPDQLYRIEECNHVLIEETDQLWKVHCHRDFKEERPEEYESWREMYLRLQDAREQRLRLLTNNIRSAHANKPKGRQAKMAFVNSVAKPPRDVRRRQEKFGTGGAAVPEKVRIKPAPYTTGSSHVPASNSSSSFHSSPEELAYEGPSTSSAHLAPVASSSVSYDPRKPAVKKIAPMMAKTIKAFKNRFSRR
B3: Elongin A deletion mutant 400-773 (other)
chain: TMSFESYLSYDQPRKKKKKVVKTSGTALGEKGLKKKDSKSTSKNLNSAQKLPKANENKSDKLQPAGAEPTRPRKVPTDVLPALPDIPLPAIQTNYRPLPSLELISSFQPKRKAFSSPQEEEEAGFTGRRMNSKMQVYSGSKCAYLPKMMTLHQQCIRVLKNNIDSIFEVGGVPYSVLEPVLERCTPDQLYRIEECNHVLIEETDQLWKVHCHRDFKEERPEEYESWREMYLRLQDAREQRLRLLTNNIRSAHANKPKGRQAKMAFVNSVAKPPRDVRRRQEKFGTGGAAVPEKVRIKPAPYTTGSSHVPASNSSSSFHSSPEELAYEGPSTSSAHLAPVASSSVSYDPRKPAVKKIAPMMAKTIKAFKNRFSRR
B4: Elongin A point mutant T549I (other)
chain: MAAESALQVVEKLQARLAANPDPKKLLKYLKKLSVLPITVDILVETGVGKTVNSFRKHEQVGNFARDLVAQWKKLVPVERNNEAEDQDFEKSNSRKRPRDVPQQEEEAEGNYQESWQASGSQPYSPEHRQKKHRKLPELERPHKVAHGHERRDERKRCHKVSPPYSSDPESSDYGHVQSPPPSSPHQMYTDLSRSPEMDQEPIVSHPKPGKVHSNTFQDRLGVSHLGEHQGKGAVSQNKPHKSSHKEKRPVDARGDEKSSVMGREKSHKASSKEESRRLLSEDSAKEKLPSSVVKKEKDREGNSLKKKLSPALDVASDNHFKKPKHKDSEKIKSDKNKQSVDSVDSGRGTGDPLPRAKDKVPNNLKAQEGKVRTNSDRKSPGSLPKVEEMDMDDEFEQPTMSFESYLSYDQPRKKKKKVVKTSGTALGEKGLKKKDSKSTSKNLNSAQKLPKANENKSDKLQPAGAEPTRPRKVPTDVLPALPDIPLPAIQTNYRPLPSLELISSFQPKRKAFSSPQEEEEAGFTGRRMNSKMQVYSGSKCAYLPKMMILHQQCIRVLKNNIDSIFEVGGVPYSVLEPVLERCTPDQLYRIEECNHVLIEETDQLWKVHCHRDFKEERPEEYESWREMYLRLQDAREQRLRLLTNNIRSAHANKPKGRQAKMAFVNSVAKPPRDVRRRQEKFGTGGAAVPEKVRIKPAPYTTGSSHVPASNSSSSFHSSPEELAYEGPSTSSAHLAPVASSSVSYDPRKPAVKKIAPMMAKTIKAFKNRFSRR
B5: Elongin A deletion mutant 1-730 (other)
chain: MAAESALQVVEKLQARLAANPDPKKLLKYLKKLSVLPITVDILVETGVGKTVNSFRKHEQVGNFARDLVAQWKKLVPVERNNEAEDQDFEKSNSRKRPRDVPQQEEEAEGNYQESWQASGSQPYSPEHRQKKHRKLPELERPHKVAHGHERRDERKRCHKVSPPYSSDPESSDYGHVQSPPPSSPHQMYTDLSRSPEMDQEPIVSHPKPGKVHSNTFQDRLGVSHLGEHQGKGAVSQNKPHKSSHKEKRPVDARGDEKSSVMGREKSHKASSKEESRRLLSEDSAKEKLPSSVVKKEKDREGNSLKKKLSPALDVASDNHFKKPKHKDSEKIKSDKNKQSVDSVDSGRGTGDPLPRAKDKVPNNLKAQEGKVRTNSDRKSPGSLPKVEEMDMDDEFEQPTMSFESYLSYDQPRKKKKKVVKTSGTALGEKGLKKKDSKSTSKNLNSAQKLPKANENKSDKLQPAGAEPTRPRKVPTDVLPALPDIPLPAIQTNYRPLPSLELISSFQPKRKAFSSPQEEEEAGFTGRRMNSKMQVYSGSKCAYLPKMMTLHQQCIRVLKNNIDSIFEVGGVPYSVLEPVLERCTPDQLYRIEECNHVLIEETDQLWKVHCHRDFKEERPEEYESWREMYLRLQDAREQRLRLLTNNIRSAHANKPKGRQAKMAFVNSVAKPPRDVRRRQEKFGTGGAAVPEKVRIKPAPYTTGSSHVPASNSSSSFHSSPEELAYEGPST
B6: Elongin A point mutant C554F (other)
chain: MAAESALQVVEKLQARLAANPDPKKLLKYLKKLSVLPITVDILVETGVGKTVNSFRKHEQVGNFARDLVAQWKKLVPVERNNEAEDQDFEKSNSRKRPRDVPQQEEEAEGNYQESWQASGSQPYSPEHRQKKHRKLPELERPHKVAHGHERRDERKRCHKVSPPYSSDPESSDYGHVQSPPPSSPHQMYTDLSRSPEMDQEPIVSHPKPGKVHSNTFQDRLGVSHLGEHQGKGAVSQNKPHKSSHKEKRPVDARGDEKSSVMGREKSHKASSKEESRRLLSEDSAKEKLPSSVVKKEKDREGNSLKKKLSPALDVASDNHFKKPKHKDSEKIKSDKNKQSVDSVDSGRGTGDPLPRAKDKVPNNLKAQEGKVRTNSDRKSPGSLPKVEEMDMDDEFEQPTMSFESYLSYDQPRKKKKKVVKTSGTALGEKGLKKKDSKSTSKNLNSAQKLPKANENKSDKLQPAGAEPTRPRKVPTDVLPALPDIPLPAIQTNYRPLPSLELISSFQPKRKAFSSPQEEEEAGFTGRRMNSKMQVYSGSKCAYLPKMMTLHQQFIRVLKNNIDSIFEVGGVPYSVLEPVLERCTPDQLYRIEECNHVLIEETDQLWKVHCHRDFKEERPEEYESWREMYLRLQDAREQRLRLLTNNIRSAHANKPKGRQAKMAFVNSVAKPPRDVRRRQEKFGTGGAAVPEKVRIKPAPYTTGSSHVPASNSSSSFHSSPEELAYEGPSTSSAHLAPVASSSVSYDPRKPAVKKIAPMMAKTIKAFKNRFSRR
B7: Elongin A point mutant V557E (other)
chain: MAAESALQVVEKLQARLAANPDPKKLLKYLKKLSVLPITVDILVETGVGKTVNSFRKHEQVGNFARDLVAQWKKLVPVERNNEAEDQDFEKSNSRKRPRDVPQQEEEAEGNYQESWQASGSQPYSPEHRQKKHRKLPELERPHKVAHGHERRDERKRCHKVSPPYSSDPESSDYGHVQSPPPSSPHQMYTDLSRSPEMDQEPIVSHPKPGKVHSNTFQDRLGVSHLGEHQGKGAVSQNKPHKSSHKEKRPVDARGDEKSSVMGREKSHKASSKEESRRLLSEDSAKEKLPSSVVKKEKDREGNSLKKKLSPALDVASDNHFKKPKHKDSEKIKSDKNKQSVDSVDSGRGTGDPLPRAKDKVPNNLKAQEGKVRTNSDRKSPGSLPKVEEMDMDDEFEQPTMSFESYLSYDQPRKKKKKVVKTSGTALGEKGLKKKDSKSTSKNLNSAQKLPKANENKSDKLQPAGAEPTRPRKVPTDVLPALPDIPLPAIQTNYRPLPSLELISSFQPKRKAFSSPQEEEEAGFTGRRMNSKMQVYSGSKCAYLPKMMTLHQQCIRELKNNIDSIFEVGGVPYSVLEPVLERCTPDQLYRIEECNHVLIEETDQLWKVHCHRDFKEERPEEYESWREMYLRLQDAREQRLRLLTNNIRSAHANKPKGRQAKMAFVNSVAKPPRDVRRRQEKFGTGGAAVPEKVRIKPAPYTTGSSHVPASNSSSSFHSSPEELAYEGPSTSSAHLAPVASSSVSYDPRKPAVKKIAPMMAKTIKAFKNRFSRR
B8: Elongin A deletion mutant 1-680 (other)
chain: MAAESALQVVEKLQARLAANPDPKKLLKYLKKLSVLPITVDILVETGVGKTVNSFRKHEQVGNFARDLVAQWKKLVPVERNNEAEDQDFEKSNSRKRPRDVPQQEEEAEGNYQESWQASGSQPYSPEHRQKKHRKLPELERPHKVAHGHERRDERKRCHKVSPPYSSDPESSDYGHVQSPPPSSPHQMYTDLSRSPEMDQEPIVSHPKPGKVHSNTFQDRLGVSHLGEHQGKGAVSQNKPHKSSHKEKRPVDARGDEKSSVMGREKSHKASSKEESRRLLSEDSAKEKLPSSVVKKEKDREGNSLKKKLSPALDVASDNHFKKPKHKDSEKIKSDKNKQSVDSVDSGRGTGDPLPRAKDKVPNNLKAQEGKVRTNSDRKSPGSLPKVEEMDMDDEFEQPTMSFESYLSYDQPRKKKKKVVKTSGTALGEKGLKKKDSKSTSKNLNSAQKLPKANENKSDKLQPAGAEPTRPRKVPTDVLPALPDIPLPAIQTNYRPLPSLELISSFQPKRKAFSSPQEEEEAGFTGRRMNSKMQVYSGSKCAYLPKMMTLHQQCIRVLKNNIDSIFEVGGVPYSVLEPVLERCTPDQLYRIEECNHVLIEETDQLWKVHCHRDFKEERPEEYESWREMYLRLQDAREQRLRLLTNNIRSAHANKPKGRQAKMAFVNSVAKPPRDVRRRQE

Target: T1, Elongin BC complex (wild type rat Elongin B and C) (rat, UniProt P62870)
T1 chain 1: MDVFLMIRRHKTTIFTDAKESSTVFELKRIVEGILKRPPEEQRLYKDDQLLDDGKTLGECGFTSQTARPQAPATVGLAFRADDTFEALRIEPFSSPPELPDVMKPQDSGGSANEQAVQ
T1 chain 2: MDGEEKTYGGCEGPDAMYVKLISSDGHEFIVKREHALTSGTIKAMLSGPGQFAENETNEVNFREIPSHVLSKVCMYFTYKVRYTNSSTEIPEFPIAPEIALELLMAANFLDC
Experiment: refolded with wild type Elongin B and C; TSK SP-NPR HPLC, SDS-PAGE, silver staining

Binding result, binds:
B1
B2
B3
B4
B5
B6
B7
B8
